Data on three molecules can be found in patent publication US7262024.

Assay [1] addresses Mouse serum rVP147-AlOH (mouse 2). The experiment in a line: flow cytometry, inhibition of surface labeling by serum rVP147-AlOH (mouse 2). (In flow cytometry, cells or beads pass a laser one at a time.)
The target of assay [2] is Mouse serum rVP56-QuilA (mouse 1). Kind of assay: flow cytometry, inhibition of surface labeling by serum rVP56-QuilA (mouse 1).
Assay [3] concerns the target Mouse serum rVP147-QuilA (mouse 2). The experiment in a line: flow cytometry, inhibition of surface labeling by serum rVP147-QuilA (mouse 2).
Assay [4] addresses Mouse serum rVP147-AlOH (mouse 1). The experiment in a line: flow cytometry, inhibition of surface labeling by serum rVP147-AlOH (mouse 1).
The target of assay [5] is Mouse serum rVP56-AlOH (mouse 1). Kind of assay: flow cytometry, inhibition of surface labeling by serum rVP56-AlOH (mouse 1).
Assay [6] deals with Mouse serum rVP147-QuilA (mouse 1). Kind of assay: flow cytometry, inhibition of surface labeling by serum rVP147-QuilA (mouse 1).
In assay [7] the target is Mouse serum rVP56-AlOH (mouse 2). Kind of assay: flow cytometry, inhibition of surface labeling by serum rVP56-AlOH (mouse 2).
Assay [8] has as its target Mouse serum rVP56-QuilA (mouse 2). Kind of assay: flow cytometry, inhibition of surface labeling by serum rVP56-QuilA (mouse 2).

B1: VP147 (protein)
chain: MQITYTDDEIQVAKLAGKYTTEDGYIFDGGWIKKDSLSEAERAAAQAYAKEKGLTPPSTDHQDSGNTEAKGAEAIYNRVKAAKKVPLDRMPYNLQYTVEVKNGSLIIPHHDHYHNIKFEWFDEGLYEAPKGYSLEDLLATVKYYVEGGNASDHVRKNKADQDSKPDEDKEHDEVSEPTHPESDEKENHAGLNPSADNLYKPSTDTEETEEEAEDTTDEAEIPGGPSIRQNAMETLTGLKSSLLLGTKDNNTISAEVDSLLALLKESQPAPIQGGQIGQPTLPNNSLATPSPSLPINPGTSHEKHEEDGYGFDANRIIAEDESGFVMSHGDSNHYFFKKDLTEEQIKAAQKHLEEVKTSHNGLDSLSSHEQDYPGNAKEMKDLDKKIEEKIAGIMKQYGVKRESIVVNKEKNAIIYPSGDHHHADPIDEHKPVGIGHSHSNYELFKPEEGVAKKEGNKVYTGEELTNVVNLLKNSTFNNQNFTLANGQKRVSFSFPPELEKKLGINMLVKLITPDGKVLEKVSGKVFGEGVGNIANFELDQPYLPGQTFKYTIASKDYPEVSYDGTFTVPTSLAYKMASQTIFYPFHAGDTYLRVNPQFAVPKGTDALVRVFDEFHGNAYLENNYKVGEIKLPIPKLNQGTTRTAGNKIPVTFMANAYLDNQSTYIVEVPILEKENQTDKPSILPQFKRNKAQENSKLDEKVEEPKTSEKVEKEKLSETGNSTSNSTLEEVPTVDPVQEKVAKFAESYGMKLENVLFNMDGTIELYLPSGEVIKKNMADFTGEAPQGNGENKPSENGKVSTGTVENQPTENKPADSLPEAPNEKPVKPENSTDNGMLNPEGNVGSDPMLDPALEEAPAVDPVQEKLEKFTASYGLGLDSVIFNMDGTIELRLPSGEVIKKNLSDFIA
For orientation: % inhibition means how much of the control response was suppressed. Read a low % inhibition as a weak effect. Regarding B1, the % inhibition is 99.8% in assay [1]; 99.5% in assay [2]; 99.6% in assay [3]; 99.7% in assay [4]; 99.6% in assay [5]; 99.7% in assay [6]. The % inhibition is 100% in assay [7] and 99.3% in assay [8].

B2: VP56 (protein)
chain: MQIGQPTLPNNSLATPSPSLPINPGTSHEKHEEDGYGFDANRIIAEDESGFVMSHGDSNHYFFKKDLTEEQIKAAQKHLEEVKTSHNGLDSLSSHEQDYPGNAKEMKDLDKKIEEKIAGIMKQYGVKRESIVVNKEKNAIIYPSGDHHHADPIDEHKPVGIGHSHSNYELFKPEEGVAKKEGNKVYTGEELTNVVNLLKNSTFNNQNFTLANGQKRVSFSFPPELEKKLGINMLVKLITPDGKVLEKVSGKVFGEGVGNIANFELDQPYLPGQTFKYTIASKDYPEVSYDGTFTVPTSLAYKMASQTIFYPFHAGDTYLRVNPQFAVPKGTDALVRVFDEFHGNAYLENNYKVGEIKLPIPKLNQGTTRTAGNKIPVTFMANAYLDNQSTYIVEVPILEKENQTDKPSILPQFKRNKAQENSKLDEKVEEPKTSEKVEKEKLSETGNSTSNSTLEEVPTVDPVQEKVAKFAESYGMKLENVLFNMDGTIELYLPSGEVIKKNMADFTGEAPQGNGENKPSENGKVSTGTVENQPTENKPADSLPEAPNEKPVKPENSTDNGMLNPEGNVGSDPMLDPALEEAPAVDPVQEKLEKFTASYGLGLDSVIFNMDGTIELRLPSGEVIKKNLSDFIA
Turning to B2, the % inhibition in assay [1] came out at 61.6%; in assay [2] it was 99.7%; in assay [3], 74.1%; in assay [4] it was 50%; in assay [5], 99.7%; in assay [6], 68.1%. Further, the % inhibition in assay [7] was determined as 100%; in assay [8] it was 99.8%.

B3: New 139 (protein)
chain: MQITYTDDEIQVAKLAGKYTTEDGYIFDGGWIKKDSLSEAERAAAQAYAKEKGLTPPSTDHQDSGNTEAKGAEAIYNRVKAAKKVPLDRMPYNLQYTVEVKNGSLIIPHHDHYHNIKFEWFDEGLYEAPKGYSLEDLLATVKYYVEGGNASDHVRKNKADQDSKPDEDKEHDEVSEPTHPESDEKENHAGLNPSADNLYKPSTDTEETEEEAEDTTDEAEIPGGPSIRQNAMETLTGLKSSLLLGTKDNNTISAEVDSLLALLKESQPAPIQ
B3: the % inhibition in assay [1] worked out at 49.7%; in assay [2] it was 0.2%; in assay [3], 40.7%; in assay [4], 53.8%; in assay [5], 0%; in assay [6] it was 41.3%. The molecule further came in with a % inhibition in assay [7] of 0%.
